Experiment [1] addresses T1, recombinant human midkine (huMK) (human, UniProt P21741 21-143).
T1 construct: also called human MK; Human MK
T1 sequence (looked up): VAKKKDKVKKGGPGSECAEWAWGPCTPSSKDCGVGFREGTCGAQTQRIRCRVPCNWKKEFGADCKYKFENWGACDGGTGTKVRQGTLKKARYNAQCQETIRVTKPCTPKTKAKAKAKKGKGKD
Nature of the experiment: ELISA, plate coated with huMK. Here is the method: (§1) The binding specificity and affinity of the humanised anti-MK antibodies to recombinant human MK (huMK) and murine MK (muMK) was assessed by ELISA. ELISA plates (Nunc Immuno MaxiSorp 96 well flat-bottom were coated with 100 uL of 2 ug/mL of either huMK or muMK in 2% BSA/PBS (overnight at room temperature). After washing, blocking (1 h at 37° C.), and washing again, the humanised anti-MK and chimeric antibodies described in Example 1 were analysed for binding to huMK or muMK at concentrations ranging between 3 μg/ml and 0.00004 μg/ml in 2% BSA/PBS (1 h at 37° C.). After washing, the binding of antibody was detected with goat anti-mouse IgG (Fab specific)-HRP conjugate (Sigma, Cat. No. A9917) and SigmaFast OPD substrate (Sigma, Cat. No. P9187). The reaction was stopped with 3 M HCl, absorbance read at 490 nm on a Dynex Technologies MRX TC II plate reader and the binding curves plotted. Binding affinity data for the humanised anti-MK antibodies to huMK and muMK are presented in Table 6 and Table 7 respectively, and in FIG. 3.
(ELISA stands for enzyme-linked immunosorbent assay.)

Experiment [2] concerns the target T2, recombinant murine midkine (muMK) (murine, UniProt P12025 23-140).
T2 construct: also called murine MK; Murine MK
T2 sequence (looked up): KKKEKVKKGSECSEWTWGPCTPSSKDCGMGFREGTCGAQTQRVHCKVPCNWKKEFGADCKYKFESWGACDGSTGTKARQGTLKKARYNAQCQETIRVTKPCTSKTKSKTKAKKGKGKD
Nature of the experiment: ELISA, plate coated with muMK. Here is the method: as §1

B1: IP14 Hv0 Lv4 (antibody, V domains shown)
VH: QVQLQQPGAELVRPGHSVKLSCKASGQSFSSYWMNWVRQRPGQGLEWIGMIHPSDSETILNQKFKDKATLTVDISSNTAYMQLSSPTSEDSAVYFCSSWSAKRGDFWGQGTTLTVSS
VL: EIVLTQSPDFQSVTPKEKVNITCRASESISNNLHWYQQKPHQSPKLLIYYASQSISGVPSRFSGSGSGTDFNLTINSVEAEDAATYYCQQSNSWPLTFGGGTKLEIKR
Usually EC50 stands for the concentration needed to bring the measured effect to its halfway point. Regarding B1, the EC50 in experiment [1] worked out at 0.108 nM.

B2: IP14 Hv0 Lv6 (antibody, V domains shown)
VH: QVQLQQPGAELVRPGHSVKLSCKASGQSFSSYWMNWVRQRPGQGLEWIGMIHPSDSETILNQKFKDKATLTVDISSNTAYMQLSSPTSEDSAVYFCSSWSAKRGDFWGQGTTLTVSS
VL: EIVLTQSPSTLSASVGDRVNITCRASESISNNLHWYQQKPHKAPKLLIYYASQSISGVPSRFSGSGSGTEFNLTISSVQPDDFATYYCQQSNSWPLTFGQGTKVEIKR
Consider B2, for which the EC50 in experiment [1] stood at 0.132 nM.

B3: IP14-H5L2 (antibody, V domains shown)
VH: QVQLVQSGGGLVQPGGSLRLSCAASGQSFSSYWMNWVRQAPGQGLEWIGMIHPSDSETILNQKFKDKATLTVDISKNTAYLQMNSLRAEDTAVYYCSSWSAKRGDFWGQGTLVTVSS
VL: EIVLTQSPATLSLSPGERATLSCRASESISNNLHWYQQKPGQAPRLLIKYASQSISGIPARFSGSGPGTDFTLTISSVEPEDFAVYYCQQSNSWPLTFGGGTKLEIKR
notes: also called Hv5 Lv2
On to B3, for which the EC50 in experiment [2] came to 0.054 nM; in experiment [1] it was 0.069 nM.

B4: IP14-H2L2 (antibody, V domains shown)
VH: QVQLVQSGAEVKKPGASVKVSCKASGQSFSSYWMNWVRQAPGQGLEWIGMIHPSDSETILNQKFKDKATLTVDISTSTAYMELSSLRSEDTAVYYCSSWSAKRGDFWGQGTLVTVSS
VL: EIVLTQSPATLSLSPGERATLSCRASESISNNLHWYQQKPGQAPRLLIKYASQSISGIPARFSGSGPGTDFTLTISSVEPEDFAVYYCQQSNSWPLTFGGGTKLEIKR
notes: also called Hv2 Lv2
Turning to B4, the EC50 in experiment [2] was determined as 0.087 nM; in experiment [1], 0.1 nM.

B5: IP14 Hv0 Lv2 (antibody, V domains shown)
VH: QVQLQQPGAELVRPGHSVKLSCKASGQSFSSYWMNWVRQRPGQGLEWIGMIHPSDSETILNQKFKDKATLTVDISSNTAYMQLSSPTSEDSAVYFCSSWSAKRGDFWGQGTTLTVSS
VL: EIVLTQSPATLSLSPGERATLSCRASESISNNLHWYQQKPGQAPRLLIKYASQSISGIPARFSGSGPGTDFTLTISSVEPEDFAVYYCQQSNSWPLTFGGGTKLEIKR
For the molecule B5, in experiment [1], the concentration giving a half-maximal response (EC50) stood at 0.095 nM.

B6: IP14-H1L2 (antibody, V domains shown)
VH: QVQLVQSGAEVKKPGHSVKVSCKASGQSFSSYWMNWVRQAPGQGLEWIGMIHPSDSETILNQKFKDKATLTVDISTSTAYMELSSPRSEDTAVYYCSSWSAKRGDFWGQGTLVTVSS
VL: EIVLTQSPATLSLSPGERATLSCRASESISNNLHWYQQKPGQAPRLLIKYASQSISGIPARFSGSGPGTDFTLTISSVEPEDFAVYYCQQSNSWPLTFGGGTKLEIKR
notes: also called Hv1 Lv2
As for B6, the EC50 in experiment [2] was determined as 0.051 nM; in experiment [1], 0.065 nM.

B7: IP14 Hv0 Lv7 (antibody, V domains shown)
VH: QVQLQQPGAELVRPGHSVKLSCKASGQSFSSYWMNWVRQRPGQGLEWIGMIHPSDSETILNQKFKDKATLTVDISSNTAYMQLSSPTSEDSAVYFCSSWSAKRGDFWGQGTTLTVSS
VL: DIVLTQSPATLSLSPGERANLSCRASESISNNLHWYQQKPHQAPRLLIYYASQSISGVPARFSGSGSGTDFNLTISSVEPEDFAVYYCQQSNSWPLTFGQGTKVEIKR
For B7, the EC50 in experiment [1] amounted to 0.092 nM.

B8: IP14-H5L7 (antibody, V domains shown)
VH: QVQLVQSGGGLVQPGGSLRLSCAASGQSFSSYWMNWVRQAPGQGLEWIGMIHPSDSETILNQKFKDKATLTVDISKNTAYLQMNSLRAEDTAVYYCSSWSAKRGDFWGQGTLVTVSS
VL: DIVLTQSPATLSLSPGERANLSCRASESISNNLHWYQQKPHQAPRLLIYYASQSISGVPARFSGSGSGTDFNLTISSVEPEDFAVYYCQQSNSWPLTFGQGTKVEIKR
notes: also called Hv5 Lv7
As to B8, the EC50 worked out at 0.059 nM in experiment [2] and 0.067 nM in experiment [1].

B9: IP14-H1L7 (antibody, V domains shown)
VH: QVQLVQSGAEVKKPGHSVKVSCKASGQSFSSYWMNWVRQAPGQGLEWIGMIHPSDSETILNQKFKDKATLTVDISTSTAYMELSSPRSEDTAVYYCSSWSAKRGDFWGQGTLVTVSS
VL: DIVLTQSPATLSLSPGERANLSCRASESISNNLHWYQQKPHQAPRLLIYYASQSISGVPARFSGSGSGTDFNLTISSVEPEDFAVYYCQQSNSWPLTFGQGTKVEIKR
notes: also called Hv1 Lv7
Turning to B9, the figures for the EC50 in experiment [2] and in experiment [1] were 0.081 nM and 0.043 nM, respectively.

B10: IP14-H5L3 (antibody, V domains shown)
VH: QVQLVQSGGGLVQPGGSLRLSCAASGQSFSSYWMNWVRQAPGQGLEWIGMIHPSDSETILNQKFKDKATLTVDISKNTAYLQMNSLRAEDTAVYYCSSWSAKRGDFWGQGTLVTVSS
VL: DIVLTQSPATLSLSPGERATLSCRASESISNNLHWYQQKPGQAPRLLIYYASQSISGIPARFSGSGPGTDFTLTISSLEPEDFAVYYCQQSNSWPLTFGGGTKLEIKR
notes: also called hIP14-H5L3; Hv5 Lv3
Turning to B10, the concentration for a half-maximal effect (EC50) is 0.05 nM in experiment [2] and 0.068 nM in experiment [1].

B11: IP14-H1L1 (antibody, V domains shown)
VH: QVQLVQSGAEVKKPGHSVKVSCKASGQSFSSYWMNWVRQAPGQGLEWIGMIHPSDSETILNQKFKDKATLTVDISTSTAYMELSSPRSEDTAVYYCSSWSAKRGDFWGQGTLVTVSS
VL: EIVLTQSPATLSLSPGERANLSCRASESISNNLHWYQQKPHQAPRLLIKYASQSISGIPARFSGSGPGTDFNLTISSVEPEDFAVYYCQQSNSWPLTFGGGTKLEIKR
notes: also called Hv1 Lv1
As for B11, the EC50 in experiment [2] came to 0.044 nM; in experiment [1], 0.056 nM.

B12: IP14-H6L1 (antibody, V domains shown)
VH: QVQLVQSGGGLVKPGHSLRLSCAASGQSFSSYWMNWVRQAPGKGLEWIGMIHPSDSETILNQKFKDKATLSVDIAKNSAYLQMNSLRAEDTAVYYCSSWSAKRGDFWGQGTLVTVSS
VL: EIVLTQSPATLSLSPGERANLSCRASESISNNLHWYQQKPHQAPRLLIKYASQSISGIPARFSGSGPGTDFNLTISSVEPEDFAVYYCQQSNSWPLTFGGGTKLEIKR
notes: also called Hv6 Lv1
As for B12, the EC50 in experiment [2] worked out at 0.032 nM; in experiment [1], 0.097 nM.

B13: IP14 Hv0 Lv1 (antibody, V domains shown)
VH: QVQLQQPGAELVRPGHSVKLSCKASGQSFSSYWMNWVRQRPGQGLEWIGMIHPSDSETILNQKFKDKATLTVDISSNTAYMQLSSPTSEDSAVYFCSSWSAKRGDFWGQGTTLTVSS
VL: EIVLTQSPATLSLSPGERANLSCRASESISNNLHWYQQKPHQAPRLLIKYASQSISGIPARFSGSGPGTDFNLTISSVEPEDFAVYYCQQSNSWPLTFGGGTKLEIKR
Regarding B13, the EC50 in experiment [1] is 0.093 nM.

B14: IP14-H1L3 (antibody, V domains shown)
VH: QVQLVQSGAEVKKPGHSVKVSCKASGQSFSSYWMNWVRQAPGQGLEWIGMIHPSDSETILNQKFKDKATLTVDISTSTAYMELSSPRSEDTAVYYCSSWSAKRGDFWGQGTLVTVSS
VL: DIVLTQSPATLSLSPGERATLSCRASESISNNLHWYQQKPGQAPRLLIYYASQSISGIPARFSGSGPGTDFTLTISSLEPEDFAVYYCQQSNSWPLTFGGGTKLEIKR
notes: also called hIP14-H1L3; Hv1 Lv3
In the case of B14, the EC50 in experiment [2] was found to be 0.089 nM; in experiment [1], 0.063 nM.

B15: IP14 Hv0 Lv8 (antibody, V domains shown)
VH: QVQLQQPGAELVRPGHSVKLSCKASGQSFSSYWMNWVRQRPGQGLEWIGMIHPSDSETILNQKFKDKATLTVDISSNTAYMQLSSPTSEDSAVYFCSSWSAKRGDFWGQGTTLTVSS
VL: DIVLTQSPATLSLSPGERATLSCRASESISNNLHWYQQKPHQAPRLLIYYASQSISGVPARFSGSGSGTDFTLTISSVEPEDFAVYYCQQSNSWPLTFGQGTKVEIKR
Turning to B15, in experiment [1], the EC50 stood at 0.08 nM.

B16: IP14-H5L1 (antibody, V domains shown)
VH: QVQLVQSGGGLVQPGGSLRLSCAASGQSFSSYWMNWVRQAPGQGLEWIGMIHPSDSETILNQKFKDKATLTVDISKNTAYLQMNSLRAEDTAVYYCSSWSAKRGDFWGQGTLVTVSS
VL: EIVLTQSPATLSLSPGERANLSCRASESISNNLHWYQQKPHQAPRLLIKYASQSISGIPARFSGSGPGTDFNLTISSVEPEDFAVYYCQQSNSWPLTFGGGTKLEIKR
notes: also called Hv5 Lv1
As to B16, the EC50 in experiment [2] came to 0.052 nM; in experiment [1], 0.062 nM.

B17: IP14 Hv0 Lv3 (antibody, V domains shown)
VH: QVQLQQPGAELVRPGHSVKLSCKASGQSFSSYWMNWVRQRPGQGLEWIGMIHPSDSETILNQKFKDKATLTVDISSNTAYMQLSSPTSEDSAVYFCSSWSAKRGDFWGQGTTLTVSS
VL: DIVLTQSPATLSLSPGERATLSCRASESISNNLHWYQQKPGQAPRLLIYYASQSISGIPARFSGSGPGTDFTLTISSLEPEDFAVYYCQQSNSWPLTFGGGTKLEIKR
For B17, the EC50 in experiment [1] is 0.09 nM.

B18: IP14-H6L2 (antibody, V domains shown)
VH: QVQLVQSGGGLVKPGHSLRLSCAASGQSFSSYWMNWVRQAPGKGLEWIGMIHPSDSETILNQKFKDKATLSVDIAKNSAYLQMNSLRAEDTAVYYCSSWSAKRGDFWGQGTLVTVSS
VL: EIVLTQSPATLSLSPGERATLSCRASESISNNLHWYQQKPGQAPRLLIKYASQSISGIPARFSGSGPGTDFTLTISSVEPEDFAVYYCQQSNSWPLTFGGGTKLEIKR
notes: also called hIP14-H6L2; Hv6 Lv2
With B18, the results for the EC50 in experiment [2] and in experiment [1] were 0.072 nM and 0.041 nM, respectively.

(Values after US20170240628A1 (CELLMID, published 2017).)
